Data published in patent US20230037815A1.

Target: cynomolgus CD19 (cynomolgus)
Assay: Octet HTX (ForteBio), IgG on AHC sensor, 1:1 fit

| Binder | Kd [nM] | koff [s⁻¹] |
| --- | --- | --- |
| CNG-CD19-705 (antibody, V domains shown) VH: QVQLQESGPGLVKPSQTLSLTCTVSGGSISTSGMGVGWIRQHPGKGLEWIGHIWWDDDKRYNPALKSRVTISVDTSKNQFSLKLSSVTAADTAVYYCARMELWSYYFDYWGQGTLVTVSS VL: EIVLTQSPATLSLSPGERATLSCSASSSVGYMHWYQQKPGQAPRLLIYDTSSLASGIPARFSGSGSGTDFTLTISSLEPEDFAVYYCFQGSVYPFTFGQGTKLEIK | 6.02 | 0.000837 |
| CNG-CD19-102 (antibody, V domains shown) VH: QVQLVQSGAEVKKPGASVKVSCKASGYEFTDYIMHWVRQAPGQGLEWMGYINPYNDGSKYTEKFQPRVTMTSDTSISTAYMELSRLRSDDTAVYYCARGTYYYGPQLFDYWGQGTTVTVSS VL: DIVMTQTPLSLSVTPGQPASISCKSSQSLETSTGTTYLNWYLQKPGQSPQLLIYRVSKRFSGVPDRFSGSGSGTDFTLKISRVEAEDVGVYYCLQLLEDPYTFGQGTKLEIK | 12.1 | 0.00218 |
| CNG-CD19-103 (antibody, V domains shown) VH: QVQLVQSGAEVKKPGASVKVSCKASGYTFTDYIMHWVRQAPGQGLEWMGYINPYNDGSKYTEKFQGRVTMTSDTSISTAYMELSRLRSDDTAVYYCARGTYYYGPQLFDYWGQGTTVTVSS VL: DIVMTQTPLSLSVTPGQPASISCKSSQSLETATGTTYLNWYLQKPGQSPQLLIYRVSRRFSGVPDRFSGSGSGTDFTLKISRVEAEDVGVYYCLQLLEDPYSFGQGTKLEIK | 4.69 | 0.00109 |
| CNG-CD19-104 (antibody, V domains shown) VH: QVQLVQSGAEVKKPGASVKVSCKASGYDFTDYIVHWVRQAPGQGLEWMGYINPYNDGSKYTEKFQGRVTMTSDTSISTAYMELSRLRSDDTAVYYCARGTYYYGPELFDYWGQGTTVTVSS VL: DIVMTQTPLSLSVTPGQPASISCKSGQSLETSTGTTYLNWYLQKPGQSPQLLIYRVSRRFSGVPDRFSGSGSGTDFTLKISRVEAEDVGVYYCLQLLEDPYTFGQGTKLEIK | 5.83 | 0.00148 |
| CNG-CD19-1 (antibody, V domains shown) VH: QVQLVQSGAEVKKPGASVKVSCKASGYTFTDYIMHWVRQAPGQGLEWMGYINPYNDGSKYTEKFQGRVTMTSDTSISTAYMELSRLRSDDTAVYYCARGTYYYGPQLFDYWGQGTTVTVSS VL: DIVMTQTPLSLSVTPGQPASISCKSSQSLETSTGTTYLNWYLQKPGQSPQLLIYRVSKRFSGVPDRFSGSGSGTDFTLKISRVEAEDVGVYYCLQLLEDPYTFGQGTKLEIK | 9.39 | 0.00191 |
| CNG-CD19-107 (antibody, V domains shown) VH: QVQLVQSGAEVKKPGASVKVSCKASGYDFTDYIMHWVRQAPGQGLEWMGYINPYNDGSKYTEKFQHRVTMTSDTSISTAYMELSRLRSDDTAVYYCARGTYYYGPQLFDYWGQGTTVTVSS VL: DIVMTQTPLSLSVTPGQPASISCKSSQSLETSTGTTYLNWYLQKPGQSPQLLIYRVSRRFSGVPDRFSGSGSGTDFTLKISRVEAEDVGVYYCLQLLEDPYTFGQGTKLEIK | 5.64 | 0.00129 |
| CNG-CD19-109 (antibody, V domains shown) VH: QVQLVQSGAEVKKPGASVKVSCKASGYDFTDYIVHWVRQAPGQGLEWMGYINPYNDGSLYTEKFQGRVTMTSDTSISTAYMELSRLRSDDTAVYYCARGTYYYGPQLFDYWGQGTTVTVSS VL: DIVMTQTPLSLSVTPGQPASISCKSSQQLETSTGTTYLNWYLQKPGQSPQLLIYRASKRFSGVPDRFSGSGSGTDFTLKISRVEAEDVGVYYCLQLLEDPYSFGQGTKLEIK | 4.03 | 0.00131 |
| CNG-CD19-110 (antibody, V domains shown) VH: QVQLVQSGAEVKKPGASVKVSCKASGYTFTDYIMHWVRQAPGQGLEWMGYINPYNDGSKYTEKFQGRVTMTSDTSISTAYMELSRLRSDDTAVYYCARGTYYYGPQLFDYWGQGTTVTVSS VL: DIVMTQTPLSLSVTPGQPASISCKSSQSLETSTGTTYLNWYLQKPGQSPQLLIYRSSKRFSGVPDRFSGSGSGTDFTLKISRVEAEDVGVYYCLQLLEDPPTFGQGTKLEIK | 6.17 | 0.00164 |
| CNG-CD19-101 (antibody, V domains shown) VH: QVQLVQSGAEVKKPGASVKVSCKASGYDFTDYIMHWVRQAPGQGLEWMGYINPYNDGSKYTDKFQERVTMTSDTSISTAYMELSRLRSDDTAVYYCARGTYYYGPELFDYWGQGTTVTVSS VL: DIVMTQTPLSLSVTPGQPASISCKSSQSLETTTGTTYLNWYLQKPGQSPQLLIYRASKRFSGVPDRFSGSGSGTDFTLKISRVEAEDVGVYYCLQLLEDPYTFGQGTKLEIK | 9.91 | 0.00233 |
| CNG-CD19-7 (antibody, V domains shown) VH: QVQLQESGPGLVKPSQTLSLTCTVSGGSISTSGMGVGWIRQHPGKGLEWIGHIWWDDDKRYNPALKSRVTISVDTSKNQFSLKLSSVTAADTAVYYCARMELWSYYFDYWGQGTLVTVSS VL: EIVLTQSPATLSLSPGERATLSCSASSSVSYMHWYQQKPGQAPRLLIYDTSKLASGIPARFSGSGSGTDFTLTISSLEPEDFAVYYCFQGSVYPFTFGQGTKLEIK | 8.43 | 0.000832 |

Binders with a lower Kd, results first:

| Kd [nM] | koff [s⁻¹] | Binder |
| --- | --- | --- |
| 2.54 | 0.000352 | CNG-CD19-703 (antibody, V domains shown) VH: QVQLQESGPGLVKPSQTLSLTCTVSGGSISTSTMGVGWIRQHPGKGLEWIGFIWWDDDKRYNPNLKSRVTMSVDTSKNQFSLKLSSVTAADTAVYYCARMELWSYYFEYWGQGTLVTVSS VL: EIVLTQSPATLSLSPGERATLSCSASSSVSYMHWYQQKPGQAPRLLIYDTSKLASGIPARFSGSGSGTDFTLTISSLEPEDFAVYYCFQGSVYPFTFGQGTKLEIK |
| 1.24 | 0.000194 | CNG-CD19-704 (antibody, V domains shown) VH: QVQLQESGPGLVKPSQTLSLTCTVSGGSIASGMGVGWIRQHPGKGLEWIGHIWWDDDKRYNPALKSRVTISVDTSKNQFSLKLSSVTAADTAVYYCARMELWSYYFDGWGQGTLVTVSS VL: EIVLTQSPATLSLSPGERATLSCSASSSVSYMHWYQQKPGQAPRLLIYDTSKLASGIPARFSGSGSGTDFTLTISSLEPEDFAVYYCFQGSVYPFTFGQGTKLEIK |
| 0.372 | 0.00012 | CNG-CD19-706 (antibody, V domains shown) VH: QVQLQESGPGLVKPSQTLSLTCTVSGGSIASGMGVSWIRQHPGKGLEWIGHIWWDDDKRYNPALKSRVTISVDTSKNQFSLKLSSVTAADTAVYYCARMELWSYYFDPWGQGTLVTVSS VL: EIVLTQSPATLSLSPGERATLSCSASSSVGYMHWYQQKPGQAPRLLIYDTSKLASGIPARFSGSGSGTDFTLTISSLEPEDFAVYYCFQGSVYPFTFGQGTKLEIK |
| 0.738 | 0.000207 | CNG-CD19-707 (antibody, V domains shown) VH: QVQLQESGPGLVKPSQTLSLTCTVSGGSISTSTMGVGWIRQHPGKGLEWIGFIWWDDDKRYNPNLKSRVTMSVDTSKNQFSLKLSSVTAADTAVYYCARMELWSYYFDPWGQGTLVTVSS VL: EIVLTQSPATLSLSPGERATLSCSASSSVGYMHWYQQKPGQAPRLLIYDTSKLASGIPARFSGSGSGTDFTLTISSLEPEDFAVYYCFQGSVYPFTFGQGTKLEIK |
| 1.02 | 0.000223 | CNG-CD19-708 (antibody, V domains shown) VH: QVQLQESGPGLVKPSQTLSLTCTVSGGSISTSTMGVGWIRQHPGKGLEWIGFIWWDDDKRYNPNLKSRVTMSVDTSKNQFSLKLSSVTAADTAVYYCARMELWSYYFDPWGQGTLVTVSS VL: EIVLTQSPATLSLSPGERATLSCSASSSVGYMHWYQQKPGQAPRLLIYDTSKLSSGIPARFSGSGSGTDFTLTISSLEPEDFAVYYCFQGSVYPFTFGQGTKLEIK |
| 0.639 | 0.000168 | CNG-CD19-709 (antibody, V domains shown) VH: QVQLQESGPGLVKPSQTLSLTCTVSGGSISTSTMGVGWIRQHPGKGLEWIGFIWWDDDKRYNPNLKSRVTMSVDTSKNQFSLKLSSVTAADTAVYYCARMELWSYYFDPWGQGTLVTVSS VL: EIVLTQSPATLSLSPGERATLSCSASSSVGYMHWYQQKPGQAPRLLIYDTSKLAFGIPARFSGSGSGTDFTLTISSLEPEDFAVYYCFQGSVYPFTFGQGTKLEIK |
| 1.54 | 0.000328 | CNG-CD19-710 (antibody, V domains shown) VH: QVQLQESGPGLVKPSQTLSLTCTVSGVSISTSSMGVGWIRQHPGKGLEWIGHAWWDDDKRYNPALKSRVTISVDTSKNQFSLKLSSVTAADTAVYYCARMELWSYYFDPWGQGTLVTVSS VL: EIVLTQSPATLSLSPGERATLSCSASSSFSYMHWYQQKPGQAPRLLIYDTSKLASGIPARFSGSGSGTDFTLTISSLEPEDFAVYYCFQGSVYPFTFGQGTKLEIK |
| 2.24 | 0.000679 | CNG-CD19-105 (antibody, V domains shown) VH: QVQLVQSGAEVKKPGASVKVSCKASGYEFTDYIMHWVRQAPGQGLEWMGYINPYNDGSKYTEKFEGRVTMTSDTSISTAYMELSRLRSDDTAVYYCARGTYYYGPELFDYWGQGTTVTVSS VL: DIVMTQTPLSLSVTPGQPASISCKSSQRLETSTGTTYLNWYLQKPGQSPQLLIYRVSRRFSGVPDRFSGSGSGTDFTLKISRVEAEDVGVYYCLQLLEDPPTFGQGTKLEIK |
| 3.2 | 0.00123 | CNG-CD19-106 (antibody, V domains shown) VH: QVQLVQSGAEVKKPGASVKVSCKASGYDFTDYIMHWVRQAPGQGLEWMGYINPYNDGSEYTEKFQGRVTMTSDTSISTAYMELSRLRSDDTAVYYCARGTYYYGPQLFDYWGQGTTVTVSS VL: DIVMTQTPLSLSVTPGQPASISCKSSQSLETATGTTYLNWYLQKPGQSPQLLIYRVSRRFSGVPDRFSGSGSGTDFTLKISRVEAEDVGVYYCLQLLEDPYTFGQGTKLEIK |
| 2.25 | 0.00065 | CNG-CD19-108 (antibody, V domains shown) VH: QVQLVQSGAEVKKPGASVKVSCKASGYDFTDYIVHWVRQAPGQGLEWMGYINPYNDGSKYTEKFQGRVTMTSDTSISTAYMELSRLRSDDTAVYYCARGTYYYGPQLFDYWGQGTTVTVSS VL: DIVMTQTPLSLSVTPGQPASISCKSSQSLETVTGTTYLNWYLQKPGQSPQLLIYRVSKRFSGVPDRFSGSGSGTDFTLKISRVEAEDVGVYYCLQLLEDPPTFGQGTKLEIK |
| 0.668 | 0.000168 | CNG-CD19-701 (antibody, V domains shown) VH: QVQLQESGPGLVKPSQTLSLTCTVSGGSISTSTMGVGWIRQHPGKGLEWIGFIWWDDDKRYNPNLKSRVTMSVDTSKNQFSLKLSSVTAADTAVYYCARMELWSYYFDYWGQGTLVTVSS VL: EIVLTQSPATLSLSPGERATLSCSASSSVGYMHWYQQKPGQAPRLLIYDTSKLASGIPARFSGSGSGTDFTLTISSLEPEDFAVYYCFQGSVYPFTFGQGTKLEIK |
